Where no end group is shown, it is not given here.

Series [1] is classed as physicochemical. The settings on record: pH 7.5.
A further series concerns the target T1, Erh1 (Erh1wt) (Schizosaccharomyces pombe, UniProt G2TRN4).
T1 construct: A region of Erh1 (residues 1–104) was amplified by PCR; made in house; host or cells: Escherichia coli BL21 (Gold)
T1 sequence (G2TRN4 1-104): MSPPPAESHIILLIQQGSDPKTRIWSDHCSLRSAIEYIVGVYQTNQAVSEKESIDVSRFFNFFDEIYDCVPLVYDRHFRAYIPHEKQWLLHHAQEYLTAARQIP
The series can be described thus: Isothermal titration calorimetry (ITC), SUMO-tagged Mmi1 peptides titrated into wild-type Erh1. In kind it is binding, S. pombe. The settings on record: Erh1wt, ITC, 293 K, 20 mM Tris-HCl pH 7.5, 150 mM NaCl, SUMO-tagged Mmi1 peptide, single-site model. The protocol:
(§1) The titration protocol consisted of a single initial injection of 1 µl, followed by 19 injections of 2 µl SUMO-tagged Mmi1 peptides into the sample cell containing Erh1 protein. Thermodynamic data were analyzed with a single-site binding model using MicroCal PEAQ-ITC Analysis Software provided by the manufacturer.
For orientation: In ITC the heat of successive injections is recorded.

The subject of a further series is Erh1. The series can be described thus: GST pull-down of Erh1 with GST-tagged Mmi1 fragments, Coomassie. In kind it is binding, S. pombe. The settings on record: GST-Mmi1 fusion incubated with Erh1, glutathione-agarose, SDS-PAGE. An excerpt: Fig. 1 Mmi1 interacts with Erh1 in a 2:2 stoichiometry. a Shown is a schematic representation of the domain architecture of Mmi1. The disorder score from DISOPRED3 Server[62] and the conservation score are shown below. The conservation score is generated by a Protein Residue Conservation Prediction Server[63] from the sequence alignment of Mmi1 orthologues from S. pombe, S. cryophilus, S. octosporus, and S. japonicus. b–d Interactions of GST tagged Mmi1 peptides (GST-Mmi1) with Erh1 visualized by Coomassie blue staining. The indicated GST-Mmi1 fusion proteins or GST alone were incubated with Erh1. The complexes were collected with glutathione-agarose resin and bound proteins were eluted and then subjected to SDS-PAGE. GST or GST-Mmi1 fusion proteins without Erh1 are shown as a negative control. Source data are provided as a Source Data file. e The raw ITC titration data of Erh1 with SUMO tagged Mmi1^95–122 and its fitting curve are shown. KD dissociation constant, DP differential power, N binding stoichiometry, ΔH binding enthalpy. f ITC fitting curves of Erh1 using SUMO tagged Mmi1^95–122 (magenta), Mmi1^106–122 (blue) and Mmi1^95–111 (green) are shown. g Size-exclusion analysis of Erh1 (magenta) and Erh1-Mmi1^95–122 (blue). Marker sizes are 62.9 KDa (Albumin), 46.7 KDa (Ovalbumin), 20.3 KDa (Chymotrypsinogen), 14.6 KDa (Ribonuclease A). Also shown are theoretical monomer sizes (kDa) of Erh1 protein and Mmi1^95–122 peptide TEXT PRINTED IN THE PICTURE: (e) Mmi1^95–122 - Erh1: KD (μM) 0.83±0.19; N (sites) 0.90±0.01; ΔH (kJ per mol) −106±3.02 | (f) Mmi1^95–122: Erh1 KD (μM): 0.83±0.19 | (f) Mmi1^106–122: Erh1 KD (μM): 9.94±1.19 | (f) Mmi1^95–111: Erh1 KD (μM): no binding | (g) Erh1: 13.2 kDa | (g) Mmi1^95–122: 3.5 kDa
A region of Erh1 (residues 1–104) was amplified by PCR from the S. pombe genome and cloned into a modified pET28a (Novagen) vector without a thrombin protease cleavage site (p28a). GST-Mmi1^YTH was sub-cloned from a Mmi1^YTH-p28a construct to a modified PGex-4T1 vector with a TEV protease cleavage site (Tev4T1). […]

Another series concerns the target T2, Erh1 E85A (Schizosaccharomyces pombe, UniProt G2TRN4, E85A).
T2 construct: A region of Erh1 (residues 1–104) was amplified by PCR; made in house; host or cells: Escherichia coli BL21 (Gold)
As to the kind of experiment: ITC, Mmi1 peptide titrated into Erh1 E85A. In kind it is binding, S. pombe. The settings on record: 293 K, pH 7.5. The protocol: as §1

The target of another series is T3, Erh1 D27A (Schizosaccharomyces pombe, UniProt G2TRN4, D27A).
T3 construct: A region of Erh1 (residues 1–104) was amplified by PCR; made in house; host or cells: Escherichia coli BL21 (Gold)
As to the kind of experiment: ITC, Mmi1 peptide titrated into Erh1 D27A. In kind it is binding, S. pombe. The protocol:
as §1

The target of a further series is T4, Erh1 D68A (Schizosaccharomyces pombe, UniProt G2TRN4, D68A).
T4 construct: A region of Erh1 (residues 1–104) was amplified by PCR; made in house; host or cells: Escherichia coli BL21 (Gold)
As to the kind of experiment: ITC, Mmi1 peptide titrated into Erh1 D68A. In kind it is binding, S. pombe. The procedure: as §1

Another series concerns the target T5, Erh1 R23A (Schizosaccharomyces pombe, UniProt G2TRN4, R23A).
T5 construct: A region of Erh1 (residues 1–104) was amplified by PCR; made in house; host or cells: Escherichia coli BL21 (Gold)
As to the kind of experiment: ITC, Mmi1 peptide titrated into Erh1 R23A. In kind it is binding, S. pombe. The protocol:
as §1

T3 sequence (G2TRN4 whole entry D27A, the tested form may be a part): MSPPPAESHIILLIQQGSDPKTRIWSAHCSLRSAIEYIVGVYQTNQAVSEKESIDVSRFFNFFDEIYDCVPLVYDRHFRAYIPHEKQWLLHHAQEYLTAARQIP
T5 sequence (G2TRN4 whole entry R23A, the tested form may be a part): as the sequence (G2TRN4 whole entry D27A, the tested form may be a part) above, with R23A, A27D counted along it
T4 sequence (G2TRN4 whole entry D68A, the tested form may be a part): as the sequence (G2TRN4 whole entry D27A, the tested form may be a part) above, with A27D, D68A counted along it
T2 sequence (G2TRN4 whole entry E85A, the tested form may be a part): as the sequence (G2TRN4 whole entry D27A, the tested form may be a part) above, with A27D, E85A counted along it

As to “Mmi1^95–122: Mmi1 fragment, residues 95–122, Erh1-interacting domain (EID) ({SUMO}-GKYDFSRHCTDYGHSYEWPYFRSLRRES; not fully specified)”, the “solubility of synthesized peptide” value in series [1] is “could not be dissolved in the interaction buffer”. Besides, the “ΔH (binding enthalpy)” value with Erh1 (Erh1wt) is reported as −106±3.02 kJ per mol; with Erh1 (Erh1wt) (listed as Mmi195-11 2), -106±3.02 kJ per mol; with Erh1 E85A it was -81.9±1.70 kJ per mol; with Erh1 D27A (Erh1 D27A, 293 K, pH 7.5), -58.8±1.58 kJ per mol; in the series with Erh1 D68A (Erh1 D68A, 293 K, pH 7.5), -47.6±1.30 kJ per mol; in the series with Erh1 R23A (Erh1 R23A, 293 K, pH 7.5) it was -24.2±4.87 kJ per mol. Besides, in the series on Erh1, the “interaction with Erh1 (GST pull-down)” value was “sufficient for interaction”. For the same substance, the “binding affinity (in words)” value with Erh1 D27A (Erh1 Asp27 substituted with alanine) and with Erh1 R23A (Erh1 Arg23 substituted with alanine) was “significantly reduced the binding affinity” each time. Besides, in the series with Erh1 D68A (Erh1^D68A mutant), the “affinity (in words)” value is “reduced”.

(Values after article PMC6335422 (Nature Communications, 2019).)
